B1: Tumor necrosis factor receptor superfamily member 6 (Mus musculus), P25446 (parent)
chain: MLWIWAVLPLVLAGSQLRVHTQGTNSISESLKLRRRVRETDKNCSEGLYQGGPFCCQPCQPGKKKVEDCKMNGGTPTCAPCTEGKEYMDKNHYADKCRRCTLCDEEHGLEVETNCTLTQNTKCKCKPDFYCDSPGCEHCVRCASCEHGTLEPCTATSNTNCRKQSPRNRLWLLTILVLLIPLVFIYRKYRKRKCWKRRQDDPESRTSSRETIPMNASNLSLSKYIPRIAEDMTIQEAKKFARENNIKEGKIDEIMHDSIQDTAEQKVQLLLCWYQSHGKSDAYQDLIKGLKKAECRRTLDKFQDMVQKDLGKSTPDTGNENEGQCLE

Variants of: B1
Settings: with fadd_human FADD

effect of a mutation on the interaction	Variant
decreasing interaction	MLWIWAVLPLVLAGSQLRVHTQGTNSISESLKLRRRVRETDKNCSEGLYQGGPFCCQPCQPGKKKVEDCKMNGGTPTCAPCTEGKEYMDKNHYADKCRRCTLCDEEHGLEVETNCTLTQNTKCKCKPDFYCDSPGCEHCVRCASCEHGTLEPCTATSNTNCRKQSPRNRLWLLTILVLLIPLVFIYRKYRKRKCWKRRQDDPESRTSSRETIPMNASNLSLSKYDPRIAEDMTIQEAKKFARENNIKEGKIDEIMHDSIQDTAEQKVQLLLCWYQSHGKSDAYQDLIKGLKKAECRRTLDKFQDMVQKDLGKSTPDTGNENEGQCLE [I225D]

Variants of: B1
Settings: with tnr6_human FAS

effect of a mutation on the interaction	Variant
decreasing interaction	MLWIWAVLPLVLAGSQLRVHTQGTNSISESLKLRRRVRETDKNCSEGLYQGGPFCCQPCQPGKKKVEDCKMNGGTPTCAPCTEGKEYMDKNHYADKCRRCTLCDEEHGLEVETNCTLTQNTKCKCKPDFYCDSPGCEHCVRCASCEHGTLEPCTATSNTNCRKQSPRNRLWLLTILVLLIPLVFIYRKYRKRKCWKRRQDDPESRTSSRETIPMNASNLSLSKYDPRIAEDMTIQEAKKFARENNIKEGKIDEIMHDSIQDTAEQKVQLLLCWYQSHGKSDAYQDLIKGLKKAECRRTLDKFQDMVQKDLGKSTPDTGNENEGQCLE [I225D]

Reference: IntAct's records for PubMed 7536190
